Measured values taken from patent publication US20210139568A1 (AXON NEUROSCIENCE, published 2021).
One block for each binder: values may come before it. Where no end group is shown, it is not given here. [ ]: non-standard residue; d: D form. pT = C[C@@H](OP(=O)(O)O)[C@H](N)C(=O)O

B1: antibody DC149 (antibody, V domains shown)
VH: DVQLVESGGGLVQPGGSRKLSCAASGFTLSSFGMHWVRQAPEKGLEWVAYISSGSSTIYYADTVKGRFTISRDNPKNILFLQMTSLRSEDTAIYYCSRRLDYWGQGTSVTVS
VL: DIVITQDELSNPVTSGESVSISCRSSKSLLYKDGKTYLNWFLQRPGQSPQLLIYLMSTRASGVSDRFSGSGSGTDFTLEISRVKAEDVGVYYCQQFVEYPLTFGTGTKLELQR
notes: Mouse monoclonal antibody
B2: antibody DC807 (antibody, V domains shown)
VH: EVKLVESGGGLVKPGGSLKLSCAASGFTFSNYAMSWVRQNPEKRLEWVASISSGGTIYSPDSVKGRFTISRDNGRNILYLQMSSLRSEDTAMYSCARVNYDYGYAMDYWGQGTSVTVS
VL: DAVMTQTPLSLPVSLGDQASISCRSSQSLENSNGNTYLNWYLQKPGQSPQLLIYRVSNRFSGVLDRFSGSGSGTDFTLKISRVEAEDLGVYFCLQVTHVPWTFGGGTKLEIKR
notes: Mouse monoclonal antibody
B3: monoclonal antibody DC2E2 (antibody, V domains shown)
VH: EVQLQQSGAELVRPGALVKLSCKASGFNIKDYYMHWVRQRPDQGLEWIGWLDPENDHTIYDPRFQDRANLTADTSSNTAYLQLSSLTSEDTAVYYCSYYKYDDYWGQGTTLTVS
VL: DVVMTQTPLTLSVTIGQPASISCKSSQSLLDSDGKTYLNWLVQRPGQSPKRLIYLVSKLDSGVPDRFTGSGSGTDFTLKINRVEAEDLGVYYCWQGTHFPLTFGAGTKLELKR
notes: Used as hybridoma supernatant or Protein G purified; biotinylated as detector in the digital ELISA

Tests used:
[1] = biological target: unphosphorylated tau protein (UniProt P10636-8 1-441, limits assumed); experiment: ELISA
unphosphorylated tau protein, sequence (P10636 other isoform, or with tags, fused parts or gaps limits assumed): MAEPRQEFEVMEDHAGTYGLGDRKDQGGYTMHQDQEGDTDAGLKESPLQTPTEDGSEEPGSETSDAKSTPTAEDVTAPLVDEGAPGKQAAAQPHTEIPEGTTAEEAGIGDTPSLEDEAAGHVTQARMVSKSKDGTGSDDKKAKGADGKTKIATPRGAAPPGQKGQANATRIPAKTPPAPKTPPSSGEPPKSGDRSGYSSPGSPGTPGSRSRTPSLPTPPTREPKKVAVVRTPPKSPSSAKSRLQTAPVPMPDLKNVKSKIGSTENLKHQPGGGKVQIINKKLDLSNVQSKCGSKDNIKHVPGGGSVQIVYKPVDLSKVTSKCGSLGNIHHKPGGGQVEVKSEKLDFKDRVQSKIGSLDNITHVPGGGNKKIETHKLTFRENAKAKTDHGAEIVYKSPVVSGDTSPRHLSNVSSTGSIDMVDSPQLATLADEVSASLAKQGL

[2] = biological target: T1, monoclonal antibody DC2E7; experiment: competition ELISA, peptide pre-incubated with DC2E7
T1 construct: also called DC217 (apparent misprint)
T1 sequence (VL, as listed by the source): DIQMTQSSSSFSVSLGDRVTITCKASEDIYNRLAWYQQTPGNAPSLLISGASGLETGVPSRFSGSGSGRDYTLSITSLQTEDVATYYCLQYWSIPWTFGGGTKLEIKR
Description: In order to examine the effect of residues in the region of DC2E7 epitope on antibody binding, synthetic peptides of different lengths carrying different phospho-sites were analyzed in competitive ELISA. […] Each synthetized peptide contained phospho-site(s) located around the residue Thr217, except of unphosphorylated peptide tau 201-229 (used as negative control).
ELISA plates (Nunc Medisorp, Thermo Scientific, Denmark) were coated overnight at 37° C. with 50 μl/well of PHF-tau, diluted 200× in PBS. The coated plates were washed 5 times with PBS/Tween 20 (0.05% v/v), and blocked with PBS/Tween 20 for 1 h at 25° C. Each of the peptides was separately dissolved in PBS at a final concentration of 1 mM. Serial dilutions (2.5×) of peptides in PBS/Tween 20 were prepared in polypropylene microtiter plates with conical well bottom (Greiner) within the concentration range of 200 μM; 80 μM; 32 μM; 12.8 μM; 5.12 μM; 2.048 μM; 0.8192 μM; 0.32768 μM). The monoclonal antibody DC2E7 was diluted to a concentration of 0.6 μg/ml in PBS and 60 μl of this diluted antibody was added into each well to serial dilution of peptides resulting in 120 μl/well of mixture. The antibody/peptide mixtures were incubated for 1 hr at 25° C. on a rotating platform set to 230 rpm.

[3] = biological target: T2, in vitro phosphorylated human tau 2N4R (human, UniProt P10636 1-758, phosphorylated in vitro with rat brain kinase extract; the phosphorylated sites are not listed); experiment: immunoblot
T2 construct: also called phosphorylated tau 2N4R; 2N4R in vitro phosphorylated
T2 sequence (P10636 other isoform, or with tags, fused parts or gaps limits assumed): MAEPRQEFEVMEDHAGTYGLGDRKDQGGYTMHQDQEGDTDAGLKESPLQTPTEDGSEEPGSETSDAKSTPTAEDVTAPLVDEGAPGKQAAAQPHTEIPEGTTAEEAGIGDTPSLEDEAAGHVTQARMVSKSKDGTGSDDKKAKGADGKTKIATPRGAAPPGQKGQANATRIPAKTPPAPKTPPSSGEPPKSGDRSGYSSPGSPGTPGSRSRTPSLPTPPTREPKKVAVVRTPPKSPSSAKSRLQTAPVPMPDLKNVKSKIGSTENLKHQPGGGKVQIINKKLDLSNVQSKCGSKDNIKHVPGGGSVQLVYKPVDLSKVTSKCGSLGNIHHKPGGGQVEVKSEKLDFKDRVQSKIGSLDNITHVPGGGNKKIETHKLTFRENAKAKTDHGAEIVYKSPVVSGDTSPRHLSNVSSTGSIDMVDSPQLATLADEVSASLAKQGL
Description: (§1) Adult rat brain (1 g/2.5 ml) was homogenized in kinase buffer (10 mM TRIS-HCl, pH 7.4; 5 mM EGTA, 2 mM DTT; 1 mM PMSF; 2 mM MgCl₂, leupeptin ([…]), pepstatin ([…]), aprotinin ([…])) and after centrifugation at 100,000×g for 30 min at 4° C. the supernatant (kinase extract) was used for the phosphorylation of tau. The phosphorylation reaction was carried out at 37° C. in 10 mM TRIS-HCl, pH 7.4; 5 mM EGTA, 2 mM DTT; 1 mM PMSF; leupeptin (20 μg/ml); pepstatin (20 μg/ml); aprotinin (20μg/ml); 2 mM ATP; 2 mM MgCl₂ and 10 μM okadaic acid. The brain kinase extract (5μl) was added to 50 μl tau solution (1 μM) and reaction was incubated at 37° C. for 24 h. The phosphorylation of tau was analysed by SDS-PAGE and immunoblotting using rabbit anti-serum raised against six recombinant human tau isoforms (Csokova et al., Rapid purification of truncated tau proteins: model approach to purification of functionally active fragments of disordered proteins, implication for neurodegenerative diseases, Protein Expression and Purification, 35:366-372, 2004).
(§2) Soluble tau proteins were diluted with an equal volume of 2×SDS (sodium dodecylsulfate) sample loading buffer (with β-mercaptoethanol) (Laemmli, 1970) and 250 ng of proteins were loaded per lane. […]

[4] = biological target: in vitro phosphorylated tau151-391 (human, UniProt P10636 468-708, phosphorylated in vitro with rat brain kinase extract; the phosphorylated sites are not listed); experiment: immunoblot
Description: as §1, §2

[5] = biological target: T3, recombinant tau deletion mutant tau 1-242 (human, UniProt P10636 1-559); experiment: hybridoma screening ELISA on coated tau 1-242
T3 construct: Numbered on tau 2N4R; It was the immunogen for DC2E2
T3 sequence (P10636 other isoform, or with tags, fused parts or gaps mutant): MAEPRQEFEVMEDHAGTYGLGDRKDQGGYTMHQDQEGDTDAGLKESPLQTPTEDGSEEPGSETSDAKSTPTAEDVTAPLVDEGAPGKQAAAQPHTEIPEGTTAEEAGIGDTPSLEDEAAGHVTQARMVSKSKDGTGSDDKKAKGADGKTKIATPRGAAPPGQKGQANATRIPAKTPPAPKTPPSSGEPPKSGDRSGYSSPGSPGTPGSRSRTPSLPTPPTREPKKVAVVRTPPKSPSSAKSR
Description: The plates were blocked with 1% nonfat dried milk to reduce nonspecific binding, washed with PBS-0.05% Tween 20, and incubated with 50 μl/well of hybridoma culture supernatant for 1 hr at 37° C. Bound monoclonal antibodies were detected with sheep anti-mouse immunoglobulin (Ig) conjugated with horse radish peroxidase (HRP, DAKO). The reaction was developed with TMB one (Kem-En-Tec Diagnostics) as a peroxidase substrate and stopped with 50 μl of 2 M H₂SO₄. Absorbance at 450 nm was measured using a Powerwave HT (Bio-Tek). Readouts with an absorbance value of at least twice the value of the negative controls (PBS) were considered positive. Positive hybridoma cultures were further subcloned in soft agar according to the procedure described in Kontsekova et al., One-step method for establishing 8-azaguanine-resistant hybridomas suitable for preparation of triomas, J. Immunol. Methods, 145, 247-250 (1991).

[6] = biological target: T4, recombinant human tau isoform 2N3R (human, UniProt P10636-5 2-410); experiment: ELISA, coated recombinant tau protein, hybridoma supernatant
T4 construct: mature
T4 sequence (P10636 other isoform, or with tags, fused parts or gaps): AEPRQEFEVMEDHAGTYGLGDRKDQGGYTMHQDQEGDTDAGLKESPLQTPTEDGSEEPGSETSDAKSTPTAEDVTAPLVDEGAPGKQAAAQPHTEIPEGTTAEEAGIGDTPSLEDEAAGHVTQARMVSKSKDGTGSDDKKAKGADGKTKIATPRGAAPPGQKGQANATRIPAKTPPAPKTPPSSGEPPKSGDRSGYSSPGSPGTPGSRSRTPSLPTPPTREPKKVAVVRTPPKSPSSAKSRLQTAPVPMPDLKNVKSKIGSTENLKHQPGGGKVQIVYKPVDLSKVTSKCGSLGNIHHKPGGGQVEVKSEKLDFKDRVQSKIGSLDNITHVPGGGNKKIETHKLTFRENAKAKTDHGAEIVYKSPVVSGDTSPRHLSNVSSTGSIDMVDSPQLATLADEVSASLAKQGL
Description: (§3) Deletion mutants of human tau protein 2N4R were used for epitope mapping of DC2E2 using ELISA (FIG. 2A). Recombinant human tau isoforms 2N4R, 1N4R, 2N3R, 0N4R, 1N3R, 0N3R and tau deletion mutants were prepared as described in Example 1. Microtiter plates were coated overnight at 37° C. with recombinant tau proteins ([…] in PBS, 50 μl/well). The plates were blocked with PBS-Tween20 (0.1% v/v) to reduce nonspecific binding and were incubated with 50 μl/well of DC2E2 hybridoma culture supernatant, for 1 hr at 37° C. Bound monoclonal antibody was detected with sheep anti-mouse Ig HRP-conjugated (DAKO). The reaction was developed with TMB one solution (Kem-En-Tec Diagnostics) as a peroxidase substrate and stopped with 50 μl of 2M H₂SO₄. Absorbance was measured at 450 nm using a Powerwave HT (Bio-Tek). Readouts with an absorbance value of at least twice the value of the negative controls (PBS) were considered positive.

[7] = biological target: T5, recombinant human tau isoform 0N4R (human, UniProt P10636-6 2-383); experiment: as above
T5 construct: mature
T5 sequence (P10636 other isoform, or with tags, fused parts or gaps): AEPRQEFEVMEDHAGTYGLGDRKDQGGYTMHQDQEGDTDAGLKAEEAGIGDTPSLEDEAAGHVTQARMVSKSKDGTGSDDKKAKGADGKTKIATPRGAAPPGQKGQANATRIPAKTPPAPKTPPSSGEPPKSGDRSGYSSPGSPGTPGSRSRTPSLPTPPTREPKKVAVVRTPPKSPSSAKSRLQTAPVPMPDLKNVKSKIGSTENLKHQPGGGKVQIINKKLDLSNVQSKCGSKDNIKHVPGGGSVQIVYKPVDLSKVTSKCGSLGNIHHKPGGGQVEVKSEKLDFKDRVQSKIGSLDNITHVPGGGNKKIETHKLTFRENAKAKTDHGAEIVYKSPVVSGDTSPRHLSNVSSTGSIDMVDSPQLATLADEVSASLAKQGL
Description: as §3

[8] = biological target: T6, recombinant human tau isoform 1N3R (human, UniProt P10636-4 2-381); experiment: as above
T6 construct: mature
Description: as §3

[9] = biological target: T7, recombinant human tau isoform 0N3R (human, UniProt P10636-2 2-352); experiment: as above
T7 construct: mature
T7 sequence (P10636 other isoform, or with tags, fused parts or gaps): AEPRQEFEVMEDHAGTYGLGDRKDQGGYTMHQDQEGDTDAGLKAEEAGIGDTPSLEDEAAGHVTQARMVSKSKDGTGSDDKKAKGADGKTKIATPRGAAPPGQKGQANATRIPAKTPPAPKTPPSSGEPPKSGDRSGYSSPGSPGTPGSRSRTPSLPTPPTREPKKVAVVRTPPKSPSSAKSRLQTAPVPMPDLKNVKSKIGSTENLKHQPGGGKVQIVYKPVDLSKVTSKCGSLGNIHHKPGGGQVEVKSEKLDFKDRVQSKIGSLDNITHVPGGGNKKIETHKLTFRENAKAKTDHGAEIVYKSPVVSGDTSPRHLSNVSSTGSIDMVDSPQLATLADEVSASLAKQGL
Description: as §3

[10] = biological target: recombinant tau deletion mutant tau 31-441 (human, UniProt P10636 31-758); experiment: as above
recombinant tau deletion mutant tau 31-441, sequence (P10636 other isoform, or with tags, fused parts or gaps mutant): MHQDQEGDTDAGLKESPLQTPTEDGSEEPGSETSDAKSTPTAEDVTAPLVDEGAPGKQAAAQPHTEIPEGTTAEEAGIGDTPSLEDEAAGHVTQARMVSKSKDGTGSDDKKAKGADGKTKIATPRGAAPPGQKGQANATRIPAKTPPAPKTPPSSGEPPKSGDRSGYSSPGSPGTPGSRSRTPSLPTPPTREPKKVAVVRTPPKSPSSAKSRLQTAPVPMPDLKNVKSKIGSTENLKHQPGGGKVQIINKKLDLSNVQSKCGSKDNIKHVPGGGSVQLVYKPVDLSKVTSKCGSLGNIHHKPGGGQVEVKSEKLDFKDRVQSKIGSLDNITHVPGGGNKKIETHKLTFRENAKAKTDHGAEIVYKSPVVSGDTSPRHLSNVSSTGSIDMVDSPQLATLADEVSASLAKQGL
Description: as §3

[11] = biological target: recombinant tau deletion mutant tau 99-441 (human, UniProt P10636 99-758); experiment: as above
recombinant tau deletion mutant tau 99-441, sequence (P10636 other isoform, or with tags, fused parts or gaps mutant): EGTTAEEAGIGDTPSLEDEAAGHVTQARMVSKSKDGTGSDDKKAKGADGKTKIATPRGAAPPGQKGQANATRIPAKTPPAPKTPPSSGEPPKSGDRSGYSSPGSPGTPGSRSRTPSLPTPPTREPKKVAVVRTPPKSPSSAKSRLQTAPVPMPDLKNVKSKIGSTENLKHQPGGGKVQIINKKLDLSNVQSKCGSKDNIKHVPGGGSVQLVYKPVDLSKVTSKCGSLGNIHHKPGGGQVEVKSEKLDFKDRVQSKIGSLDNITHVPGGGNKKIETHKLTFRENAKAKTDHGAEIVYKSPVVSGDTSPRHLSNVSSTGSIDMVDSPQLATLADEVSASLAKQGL
Description: as §3

[12] = biological target: recombinant tau deletion mutant tau 1-226 (human, UniProt P10636 1-543); experiment: as above
recombinant tau deletion mutant tau 1-226, sequence (P10636 other isoform, or with tags, fused parts or gaps mutant): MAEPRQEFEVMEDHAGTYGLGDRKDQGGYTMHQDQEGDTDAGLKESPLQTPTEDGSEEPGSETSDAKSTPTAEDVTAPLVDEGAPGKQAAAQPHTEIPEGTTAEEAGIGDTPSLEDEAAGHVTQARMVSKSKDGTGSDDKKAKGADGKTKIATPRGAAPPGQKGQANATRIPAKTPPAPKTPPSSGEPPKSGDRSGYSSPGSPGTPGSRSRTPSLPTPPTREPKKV
Description: as §3

[13] = biological target: recombinant truncated tau151-391 (unphosphorylated) (human, UniProt P10636 468-708); experiment: as above
recombinant truncated tau151-391 (unphosphorylated), sequence (P10636 468-708 I625L): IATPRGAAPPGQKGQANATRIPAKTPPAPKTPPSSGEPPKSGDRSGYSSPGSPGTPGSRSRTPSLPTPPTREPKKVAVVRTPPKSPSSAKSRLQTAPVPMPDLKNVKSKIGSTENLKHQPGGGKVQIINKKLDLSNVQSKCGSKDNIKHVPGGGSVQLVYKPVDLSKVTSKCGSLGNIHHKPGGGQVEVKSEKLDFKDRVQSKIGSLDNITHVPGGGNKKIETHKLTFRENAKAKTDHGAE
Description: as §3

[14] = biological target: recombinant tau deletion mutant tau 127-441 (human, UniProt P10636 378-758); experiment: as above
recombinant tau deletion mutant tau 127-441, sequence (P10636 other isoform, or with tags, fused parts or gaps mutant): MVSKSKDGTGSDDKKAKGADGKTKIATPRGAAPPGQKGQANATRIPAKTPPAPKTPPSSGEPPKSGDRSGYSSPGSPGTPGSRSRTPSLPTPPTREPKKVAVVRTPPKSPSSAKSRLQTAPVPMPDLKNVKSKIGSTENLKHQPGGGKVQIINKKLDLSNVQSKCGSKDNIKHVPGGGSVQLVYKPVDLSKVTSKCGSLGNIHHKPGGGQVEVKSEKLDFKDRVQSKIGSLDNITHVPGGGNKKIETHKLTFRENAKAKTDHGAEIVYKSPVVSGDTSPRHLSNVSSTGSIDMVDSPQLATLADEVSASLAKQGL
Description: as §3

[15] = biological target: T8, recombinant human tau isoform 1N4R (human, UniProt P10636-7 2-412); experiment: as above
T8 construct: mature
T8 sequence (P10636 other isoform, or with tags, fused parts or gaps): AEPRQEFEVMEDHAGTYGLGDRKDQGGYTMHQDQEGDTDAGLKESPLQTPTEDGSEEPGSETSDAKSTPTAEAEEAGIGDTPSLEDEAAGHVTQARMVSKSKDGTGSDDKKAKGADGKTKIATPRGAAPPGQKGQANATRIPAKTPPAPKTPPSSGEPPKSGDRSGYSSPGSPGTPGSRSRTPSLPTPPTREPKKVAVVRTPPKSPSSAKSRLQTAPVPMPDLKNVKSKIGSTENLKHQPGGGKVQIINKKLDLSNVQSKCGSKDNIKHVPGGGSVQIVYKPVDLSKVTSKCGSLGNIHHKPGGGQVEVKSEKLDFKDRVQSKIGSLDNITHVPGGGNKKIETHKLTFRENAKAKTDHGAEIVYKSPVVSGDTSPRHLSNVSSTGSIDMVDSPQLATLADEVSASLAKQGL
Description: as §3

[16] = biological target: recombinant tau deletion mutant tau 1-136 (human, UniProt P10636 1-387); experiment: ELISA, coated recombinant tau proteins, DC2E2 hybridoma supernatant
recombinant tau deletion mutant tau 1-136, sequence (P10636 other isoform, or with tags, fused parts or gaps mutant): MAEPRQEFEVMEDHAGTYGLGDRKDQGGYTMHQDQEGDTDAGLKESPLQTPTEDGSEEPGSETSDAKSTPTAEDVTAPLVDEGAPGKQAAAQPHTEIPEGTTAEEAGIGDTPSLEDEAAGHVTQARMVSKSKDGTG
Description: as §3

[17] = biological target: recombinant tau deletion mutant tau 221-441 (unphosphorylated) (human, UniProt P10636 538-758); experiment: as above
recombinant tau deletion mutant tau 221-441 (unphosphorylated), sequence (P10636 other isoform, or with tags, fused parts or gaps mutant): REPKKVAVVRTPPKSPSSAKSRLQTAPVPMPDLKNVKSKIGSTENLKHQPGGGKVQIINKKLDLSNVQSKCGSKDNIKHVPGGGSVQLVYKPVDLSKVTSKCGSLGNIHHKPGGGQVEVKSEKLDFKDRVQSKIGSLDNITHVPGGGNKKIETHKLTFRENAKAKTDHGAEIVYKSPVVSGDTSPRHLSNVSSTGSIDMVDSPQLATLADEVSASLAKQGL
Description: as §3

[18] = biological target: T9, recombinant tau deletion mutant tau2N4RΔ(134-168) (human, UniProt P10636 1-758); experiment: as above
T9 construct: Tau 2N4R with residues 134-168 deleted; also called tau 2N4R(A134-168)
Description: as §3

[19] = biological target: B3; experiment: competition ELISA, peptide pre-incubated with DC2E2, plates coated with tau 1-242
Description: (§4) The plates were washed 4 times with PBS/Tween 20 (0.1% v/v), and blocked with PBS/Tween 20 for 2 h at 25° C. Peptides were separately dissolved in PBS at a final concentration of 5 mM. Serial dilutions (2,5-fold) of the peptides in PBS/Tween 20 were prepared in polypropylene plates with conical well bottom (Greiner, #651201) (concentration range 200 μM, 32 μM, 12.8 μM, 5.1 μM, 2 μM, 0.8 μM, and 0.3 μM). 60 μl of each dilution were added per well. Purified DC2E2 was diluted to a concentration of 0.6 μg/ml in PBS/Tween 20 and 60 μl of this diluted antibody was mixed with each serial dilution of peptides resulting in 120 μl mixtures with […] of antibody/60μl containing each respective test peptide at a concentration of 200 μM, 32 μM, 12.8 μM, 5.1 μM, 2 μM, 0.8 μM, and 0.3 μM. The antibody/peptide mixtures were incubated for 1 hr at 25° C. on a rotating platform set to 250 rpm. […] The plates were washed 4× times with PBS/Tween 20 and incubated for 1 hr at 25° C. on a rotating platform (set to 250 rpm) with 50 μl of Polyclonal Goat Anti-Mouse Immunoglobulins/HRP (Dako, #P0447) diluted 1:1000 in PBS/Tween 20. The plates were washed 4× times with PBS/Tween and then incubated with 50 μl/well of TMB one solution (Kem-En-Tec Diagnostics) as a peroxidase substrate. The reaction was stopped by adding 50 μl of 2 M H₂SO₄ (Merck). Absorbance was measured at 450 nm using a Powerwave HT (Bio-Tek).

[20] = biological target: B3; experiment: competition ELISA, peptide 0.3-200 µM pre-incubated with DC2E2, plates coated with tau 1-242
Description: as §4

Binder: B1
binding result [1]: no binding

Binder: B2
binding result [1]: no binding

Binder: SR[pT]PSLP[pT]P [synthetic phosphopeptide tau 210-218/pT212/pT217]
binding result [2]: no binding (tested: peptide up to 200 µM)

Binder: B3
binding result [3]: binds
binding result [4]: binds
binding result [5]: binds
binding result [6]: binds
binding result [7]: binds
binding result [8]: binds
binding result [9]: binds
binding result [10]: binds
binding result [11]: binds
binding result [12]: binds
binding result [13]: binds
binding result [14]: binds
binding result [15]: binds
binding result [16]: no binding
binding result [17]: no binding
binding result [18]: no binding

Binder: IPAKTPPAPKTPPSSGEPPKSGDRSGYSSP [synthetic peptide tau 171-200]
binding result [19]: no binding (tested: peptide up to 200 µM)

Binder: TPPSSGEPPKSGDRSGYSSPGSPGTPGSRS [synthetic peptide tau 181-210]
binding result [19]: no binding (tested: peptide up to 200 µM)

binding result [20]: binds
Binder: GQKGQANATRIPAKTPPAPKTPPSSGEPPK [synthetic peptide tau 161-190]

Binder: SR[pT]PSLP[pT]PPT [synthetic phosphopeptide tau 210-220/pT212/pT217]
binding result [2]: no binding (tested: peptide up to 200 µM)

Binder: SR[pT]PSLP[pT]PP [synthetic phosphopeptide tau 210-219/pT212/pT217]
binding result [2]: no binding (tested: peptide up to 200 µM)

Binder: KAKGADGKTKIATPRGAAPPGQKGQANATR [synthetic peptide tau 141-170]
binding result [19]: no binding (tested: peptide up to 200 µM)
